This is an account of results in PMC10397247.

One experiment has as its target T1, 4H968-bA.
T1 chain: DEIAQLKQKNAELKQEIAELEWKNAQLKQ
Kind of experiment: two-hybrid library CCNG1.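 Also: natural log of median RNA to DNA barcode read ratio; higher means stronger binding.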

Another experiment addresses T2, 4H510-AA.
T2 chain: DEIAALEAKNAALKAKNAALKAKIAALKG
The experiment in a line: two-hybrid library CCmax.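 Also: natural log of median RNA to DNA barcode read ratio; higher means stronger binding.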 Particulars: mean of both orientations.

Another experiment deals with T3, 4H_APH.
T3 chain: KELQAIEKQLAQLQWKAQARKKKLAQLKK
Kind of experiment: two-hybrid library CCmax.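 Also: natural log of median RNA to DNA barcode read ratio; higher means stronger binding.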

For another experiment, the target named is T4, 4H_BCR.
T4 chain: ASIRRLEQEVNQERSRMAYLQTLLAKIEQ
Kind of experiment: two-hybrid library CCmax.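 Also: natural log of median RNA to DNA barcode read ratio; higher means stronger binding.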 The settings on record: mean of both orientations.

A further experiment deals with 4H_GCN4. The experiment in a line: two-hybrid library CCmax.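 Also: natural log of median RNA to DNA barcode read ratio; higher means stronger binding.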
Sequence of 4H_GCN4 (chain, as listed by the source): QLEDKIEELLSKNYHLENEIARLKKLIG
The target of a further experiment is GCN2_T. Kind of experiment: two-hybrid library CCmax.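 Also: natural log of median RNA to DNA barcode read ratio; higher means stronger binding.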
A further experiment addresses T5, O11-AA.
T5 chain: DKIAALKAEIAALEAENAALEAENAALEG
Kind of experiment: two-hybrid library CCmax. The settings on record: mean of both orientations.

Another experiment deals with T6, O13-AA.
T6 chain: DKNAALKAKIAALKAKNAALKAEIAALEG
Kind of experiment: two-hybrid library CCmax. Particulars: mean of both orientations.

In the next experiment the target is T7, O14-AA.
T7 chain: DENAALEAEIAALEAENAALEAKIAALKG
The experiment in a line: two-hybrid library CCmax. The settings on record: mean of both orientations.

For another experiment, the target named is T8, 4H3709-AA.
T8 chain: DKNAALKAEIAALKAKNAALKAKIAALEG
The experiment in a line: two-hybrid library CCmax.

The next experiment concerns the target T9, 4H391-AA.
T9 chain: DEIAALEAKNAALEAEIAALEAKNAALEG
Kind of experiment: two-hybrid library CCmax. Particulars: mean of both orientations.

The target in the next experiment is T10, 4H3920-AA.
T10 chain: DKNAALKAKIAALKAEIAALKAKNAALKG
The experiment in a line: two-hybrid library CCmax. Particulars: mean of both orientations.

The next experiment deals with T11, 4H3939-AA.
T11 chain: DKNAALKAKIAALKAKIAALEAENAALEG
Kind of experiment: two-hybrid library CCmax. The settings on record: mean of both orientations.

The target of another experiment is T12, 4H428-AA.
T12 chain: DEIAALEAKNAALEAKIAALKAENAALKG
The experiment in a line: two-hybrid library CCmax. Particulars: mean of both orientations.

The next experiment addresses T13, 4H478-AA.
T13 chain: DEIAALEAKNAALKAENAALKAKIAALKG
The experiment in a line: two-hybrid library CCmax. The settings on record: mean of both orientations.

For another experiment, the target named is T14, 4H497-AA.
T14 chain: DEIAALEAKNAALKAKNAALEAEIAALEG
The experiment in a line: two-hybrid library CCmax. Particulars: mean of both orientations.

The target of the next experiment is T15, 4H656-AA.
T15 chain: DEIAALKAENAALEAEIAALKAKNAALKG
Kind of experiment: two-hybrid library CCmax. The settings on record: mean of both orientations.

The target of the next experiment is T16, 4H675-AA.
T16 chain: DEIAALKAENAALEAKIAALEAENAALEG
The experiment in a line: two-hybrid library CCmax. Particulars: mean of both orientations.

The target in a further experiment is T17, 4H971-AA.
T17 chain: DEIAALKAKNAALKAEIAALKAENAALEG
Kind of experiment: two-hybrid library CCmax. The settings on record: mean of both orientations.

For a further experiment, the target named is T18, 4H968-bN.
T18 chain: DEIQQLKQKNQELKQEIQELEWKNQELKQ
The experiment in a line: two-hybrid library CCNG1.

The next experiment has as its target T19, APC8516-AA.
T19 chain: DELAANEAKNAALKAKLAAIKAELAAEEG
Kind of experiment: two-hybrid library CCmax.

A further experiment deals with T20, APC9141-AA.
T20 chain: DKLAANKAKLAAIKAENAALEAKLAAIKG
The experiment in a line: two-hybrid library CCmax. Particulars: mean of both orientations.

A further experiment has as its target T21, APC9182-AA.
T21 chain: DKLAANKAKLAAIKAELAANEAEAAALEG
Kind of experiment: two-hybrid library CCmax. The settings on record: mean of both orientations.

The target in the next experiment is T22, APC9291-AA.
T22 chain: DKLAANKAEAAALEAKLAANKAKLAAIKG
The experiment in a line: two-hybrid library CCmax. The settings on record: mean of both orientations.

In a further experiment the target is T23, APC9806-AA.
T23 chain: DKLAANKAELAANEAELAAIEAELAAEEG
The experiment in a line: two-hybrid library CCmax. Particulars: mean of both orientations.

As to DEIAQLKQKNAELKQEIAELEWKNAQLKQ [4H968-bA], in the experiment with 4H968-bA, the interaction score is -1.46.
DEIAALEAKNAALKAEIAALEAENAALEG [4H451-AA]: the interaction score was -1.68 in the experiment with 4H510-AA; -1.88 in the experiment with 4H_APH; -1.98 with 4H_BCR; -1.53 with 4H_GCN4; -0.954 with GCN2_T; -1.9 with O11-AA. Moreover, the results for the interaction score with O13-AA and in the experiment with O14-AA were -1.74 and 0.209, respectively.
On to DKNAALKAEIAALKAKNAALKAKIAALEG [4H3709-AA], for which the interaction score in the experiment with 4H3709-AA was 0.066; in the experiment with 4H391-AA, -1.04; with 4H3920-AA, -1.81; in the experiment with 4H3939-AA, -2.03; in the experiment with 4H428-AA, -2.58; with 4H478-AA, -0.647. The interaction score is -1.73 in the experiment with 4H497-AA, 0.489 in the experiment with 4H656-AA, 1.6 in the experiment with 4H675-AA and -1.69 in the experiment with 4H971-AA.
With DEIQQLKQKNQELKQEIQELEWKNQELKQ [4H968-bN], in the experiment with 4H968-bN, the interaction score came to 0.264.
DELAANEAKNAALKAKLAAIKAELAAEEG [APC8516-AA]: the interaction score was -1.87 in the experiment with APC8516-AA; -1.56 in the experiment with APC9141-AA; -1.64 with APC9182-AA; -1.91 in the experiment with APC9291-AA; -1.63 with APC9806-AA.
